The term Kd denotes the equilibrium constant for the complex coming apart. Low readings indicate higher affinity, high ones lower affinity.

This assay concerns the target Growth arrest specific 6 (Gas6), soluble, His-tagged (Homo sapiens, UniProt Q14393). Description: flow cytometry on cells.

Sequence of Growth arrest specific 6 (Gas6), soluble, His-tagged (Q14393 31-678): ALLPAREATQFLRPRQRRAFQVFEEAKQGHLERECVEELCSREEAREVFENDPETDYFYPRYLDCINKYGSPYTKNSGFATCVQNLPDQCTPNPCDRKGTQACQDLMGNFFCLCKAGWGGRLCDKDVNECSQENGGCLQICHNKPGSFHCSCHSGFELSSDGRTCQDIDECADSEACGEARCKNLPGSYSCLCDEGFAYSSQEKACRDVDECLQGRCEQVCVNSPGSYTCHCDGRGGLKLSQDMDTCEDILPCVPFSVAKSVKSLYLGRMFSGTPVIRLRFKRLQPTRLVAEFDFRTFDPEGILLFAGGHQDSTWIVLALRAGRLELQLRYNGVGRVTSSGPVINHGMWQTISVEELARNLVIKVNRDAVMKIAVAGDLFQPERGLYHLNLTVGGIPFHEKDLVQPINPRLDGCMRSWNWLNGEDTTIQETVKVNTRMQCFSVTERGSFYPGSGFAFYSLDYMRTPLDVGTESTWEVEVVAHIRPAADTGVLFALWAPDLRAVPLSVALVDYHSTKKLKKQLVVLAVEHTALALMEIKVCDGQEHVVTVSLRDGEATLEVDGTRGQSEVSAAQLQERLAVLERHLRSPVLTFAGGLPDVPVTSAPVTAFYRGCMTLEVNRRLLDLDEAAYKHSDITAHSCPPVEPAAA

B1: anti-Gas6 scFv identified by μSCALE from a naïve yeast-displayed scFv library (scFv, V domains shown)
VH: EVQLVESGGGLVQPGGSLRLSCAASGFNISYGGSYIHWVRQAPGKGLEWVASIYPGGGYTYYADSVKGRFTISADTSKNTAYLQMNSLRAEDTAVYYCARTVRGSKKPYFSGWAMDYWGQGTLVTVSS
VL: DIQMTQSPSSLSASVGDRVTITCRASQYGGYGGVAWYQQKPGKAPKLLIYYASSLYSGVPSRFSGSRSGTDFTLTISSLQPEDFATYYCQQWWGYPITFGQGTKVEIK
On to B1, for which the equilibrium dissociation constant (Kd) stood at 130 nM.

For the origin of these results see article PMC6215714 (Nature chemical biology, 2015).
